The text below walks through data of publication PMC3268813 (Scientific Reports, 2012).

Data set [1] deals with the molecule itself. The data set can be described thus: SEC.
Data set [2] deals with T1, GST-tagged chicken CK2α kinase dead (K68A mutant) (chicken, UniProt P21868 1-391, K68A).
T1 sequence: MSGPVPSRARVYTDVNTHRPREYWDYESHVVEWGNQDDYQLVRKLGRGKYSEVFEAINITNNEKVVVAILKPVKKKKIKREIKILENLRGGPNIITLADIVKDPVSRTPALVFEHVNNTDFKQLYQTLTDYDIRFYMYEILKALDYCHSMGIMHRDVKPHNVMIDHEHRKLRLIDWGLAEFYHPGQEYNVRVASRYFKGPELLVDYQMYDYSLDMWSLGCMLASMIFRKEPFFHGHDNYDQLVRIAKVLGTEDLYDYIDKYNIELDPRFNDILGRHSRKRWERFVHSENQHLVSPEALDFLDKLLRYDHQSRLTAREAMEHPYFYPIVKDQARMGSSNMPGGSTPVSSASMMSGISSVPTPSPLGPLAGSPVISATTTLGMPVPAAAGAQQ
Kind of data set: pull-down.

Data set [3] deals with T2, GST-tagged chicken CK2α (chicken, UniProt P21868 1-391).
T2 sequence: T1 sequence with A68K
The data set can be described thus: pull-down.

Positions count from the first letter of the chain named. Names and notes keep the numbering of the source.

B1: CRN2 wild-type C-terminal polypeptide (aa300-474), His6-tagged (domain or fragment)
chain: PYVHYLNTFSSKEPQRGMGYMPKRGLDVNKCEIARFFKLHERKCEPIIMTVPRKSDLFQDDLYPDTAGPEAALEAEEWFEGKNADPILISLKHGYIPGKNRDLKVVKKNILDSKPTANKKCDLISIPKKTTDTASVQNEAKLDEILKEIKSIKDTICNQDERISKLEQQMAKIAA
On to B1, for which, in data set [1], the “stoichiometry N” value came to 3. The binding result in data set [2] and in data set [3] was “binds” each time.

B2: CRN2 S463A phospho-resistant C-terminal polypeptide (aa300-474), His6-tagged (domain or fragment)
chain: B1 chain with S164A
With B2, the “stoichiometry N” value in data set [1] turned out to be 3.

B3: CRN2 S463D phosphomimetic C-terminal polypeptide (aa300-474), His6-tagged (domain or fragment)
chain: B1 chain with S164D
B3: the “stoichiometry N” value in data set [1] came out at 3. The binding result in data set [2] and in data set [3] was “binds” in each case.

One may read the stoichiometry N as a count of units in the complex or per binding partner.
